# Experiments:
# Munc18-1-His (rat) = Munc18-1-His (rat) (UniProt P61765)
# [1] = target: Munc18-1 + Mint1 (rat | human) (UniProt P61765); test: ITC
Substance,Kd (Munc18-1-His (rat)),dH (Munc18-1-His (rat)),stoichiometry N (Munc18-1-His (rat)),dH [1]
Mint1_14 peptide (261-282 A275A/E276A),216 µM,-57.6 kcal/mol,1,
Rat Sx1a (Sx1(1-261)-His) (from UniProt P32851 1-261) (domain or fragment),,,,-29.7 kcal/mol
